Results: patent US7217694B2, “Inhibitors of IAPP fibril formation and uses thereof” (The Governing Counsel of the University of Toronto, priority 2000, dated 2007)
“Also recorded” adds a separate entry of the source. Blank lines part the entries; values can stand above or below the molecule they belong to.

Tests used:
[1] = target: T1, hIAPP 1–37 (Homo sapiens, UniProt P10997); test: Circular dichroism (CD) of IAPP conformational change, random coil to β-sheet; type: biochemical; conditions: for effect on IAPP β-sheet formation / precipitation (CD): pH 6.5; for effect on IAPP conformation (CD): higher molar ratios / higher concentrations; for inhibition of IAPP β-sheet formation / fibril formation, overall statement (CD): molar ratio not stated; for effect on initial random structure of IAPP (CD) / conformational change of IAPP (CD): time 0; for effect on initial random structure of IAPP (CD): 1:10 or 1:20 molar ratio; for inhibitory activity from the circular dichroism results, peptides from the 8–20 region (summary): FIGS. 9A to 16B; for description of activity on IAPP conformation (CD), peptides from the 8–20 region: concentration not given; for effect on IAPP conformation (CD), peptides from the 8–20 region: 10-fold molar excess
T1 construct: Synthetic human IAPP (1–37) was purchased from BACHEM; purchased BACHEM (Torrence, Calif.); host or cells: chemical synthesis
T1 sequence (P10997 34-70): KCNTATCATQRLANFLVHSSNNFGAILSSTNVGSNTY
Description: (§1) FIG. 1 illustrates the sequence of the amyloid-β (Aβ) peptide and its proposed structural domains. A peptide-based approach similar to that used for Aβ (Tjernberg, et al, J Biol Chem 272:12601–12605, 1997) has been used for targeting two key domains in IAPP initially ranging from the 8–20 and 20–29 sequences as shown in FIG. 2. These peptides, as has been shown for Aβ peptides, are able to bind to the full-length IAPP peptide and alter fibrillogenesis. The peptides disrupt fibrillogenesis by disrupting the folding into the amyloidogenic β-sheet conformation, disrupting protofilament interactions, and/or interfering with side chain interactions within the folded IAPP, which are necessary for aggregation and fibril formation. The peptides that have been examined (shown in FIG. 2) were small, synthetic hexapeptides that correspond to the principal sequence domains of IAPP. […] The in vitro assays included: Circular Dichroism (CD), to look at changes in folding of the amyloidogenic β-sheet; negative stain electron microscopy (EM) to examine changes in fibril morphology and relative density; and ThT fluorescence assay which provides a quantitative assessment of fibril formation.
Synthetic human IAPP (1–37) was purchased from BACHEM (Torrence, Calif.), synthetic peptides spanning the region from IAPP 8 to 20 and 19–31 (FIG. 3) were synthesized by the Peptide Synthesis Laboratory at the University of Toronto using standard FMOC (Fluoroenylmethoxycarbonyl) based solid phase peptide synthesis methodology. The peptides were purified by reverse phase HPLC using water/acetonitrile mixtures buffered with 0. 1% trifluoroacetic acid, on a POROS 20R2 column. The synthetic peptides were solubilized in […] (1 mg/ml), filtered (0.2 μm), aliquotted and lyophilized (Higham, C E., et al., FEBS Lett. 470: 55–60, 2000). Aliquots were reconstituted as required in 20 mM sodium acetate buffer pH 6.5.
CD was used to measure the peptide conformational changes associated with fibril formation. CD experiments were carried out at room temperature, and spectra (average of 5 scans) were collected using a Jasco J720 spectropolarimeter and quartz cuvettes with a path length of 1 mm. […]

[2] = target: T1, hIAPP 1–37; test: Negative stain electron microscopy of IAPP fibril morphology and density; type: biochemical; conditions: for effect on IAPP fibril morphology / density / aggregation (EM): molar ratio not stated
Description: as §1
TEM was used for structural analysis of in vitro assembled fibrils. Aliquots (4 μl) were applied to pioloform and carbon coated grids. The samples were incubated on the grids for 3 minutes at room temperature, excess material blotted off and stained with 1% phosphotungstic acid (PTA). Excess PTA was blotted off and the sample was left to air dry. All samples were examined using a Hitachi 7000 electron microscope with an accelerating voltage of 75 kV.
In preliminary work the series of peptides were synthesized from the 20–29 domain and examined, via CD, EM and ThT fluorescence, at two molar ratios (1:10 and 1:20) in comparison to the full-length IAPP residues 1–37. The following data (FIGS. 5A to 5D, 6A to 6C and 7A to 7B) were obtained.

[3] = target: T2, Synthetic human IAPP (1-37) (human, not fully specified); test: cell-based or functional assay
T2 peptide: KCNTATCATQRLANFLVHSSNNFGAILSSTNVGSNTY

hIAPP conformation by CD ([1]; 1:1 molar ratio with IAPP): no longer inhibitory
Molecule: AILSST
inhibition of IAPP β-sheet transition and aggregation (CD) ([1]; 1:10 or 1:20 molar ratio (10- or 20-fold molar excess)): very strong inhibitors of IAPP β-sheet transition | hIAPP conformation by CD ([1]; 5-fold molar excess): able to maintain hIAPP as a random coil peptide | inhibition of IAPP β-sheet conformational change at reduced concentrations (CD) ([1]; 5-fold molar excess (1:5) or 1:1 molar ratio): capable of maintaining the majority of hIAPP in a random coil conformation | effect on IAPP β-sheet formation / precipitation (CD) ([1]; 48-hour incubation): able to prevent the attenuation of signal due to precipitation of IAPP | effect on IAPP conformation (CD) [1]: prevented the conformational change to β-sheet | inhibition of IAPP β-sheet formation / fibril formation, overall statement (CD) [1]: greatest inhibition of IAPP fibril formation | effect on initial random structure of IAPP (CD) [1]: had no effect on the initial random structure of IAPP | effect on IAPP fibril morphology / density / aggregation (EM) [2]: fibrils formed were less numerous; also recorded: absence of fibrillar aggregates which could act as seeds

inhibitory activity from the circular dichroism results, peptides from the 8–20 region (summary) [1]: have inhibitory activity | description of activity on IAPP conformation (CD), peptides from the 8–20 region [1]: maintained a random coil | effect on IAPP fibril morphology / density / aggregation (EM) [2]: lower density of IAPP fibrils
Molecule: ANFLVH [FRA-019]

inhibitory activity from the circular dichroism results, peptides from the 8–20 region (summary) [1]: have inhibitory activity | effect on IAPP conformation (CD) [1]: limited inhibition
Molecule: ATQRLA [FRA-012]
effect on IAPP fibril morphology / density / aggregation (EM) [2]: only limited effects on the density and morphology of the fibrils

Molecule: FGAILS
effect on IAPP β-sheet formation / precipitation (CD) ([1]; 48-hour incubation): little effect on the ability of hIAPP (1–37) to form a β-sheet | effect on initial random structure of IAPP (CD) [1]: had no effect on the initial random structure of IAPP | effect on IAPP fibril morphology / density / aggregation (EM) [2]: had no effect on the morphology of IAPP fibrillar aggregates

inhibitory activity from the circular dichroism results, peptides from the 8–20 region (summary) [1]: have inhibitory activity | description of activity on IAPP conformation (CD), peptides from the 8–20 region [1]: some modest inhibition
Molecule: FLVHSS [FRA-018]

Molecule: GAILSST
effect on IAPP conformation (CD) [1]: prevented the conformational change to β-sheet

Molecule: ILSSTN
effect on IAPP β-sheet formation / precipitation (CD) ([1]; 48-hour incubation): little effect on the ability of hIAPP (1–37) to form a β-sheet | effect on initial random structure of IAPP (CD) [1]: had no effect on the initial random structure of IAPP

effect on IAPP conformation (CD), peptides from the 8–20 region [1]: relatively good inhibition | inhibitory activity from the circular dichroism results, peptides from the 8–20 region (summary) [1]: have inhibitory activity | effect on IAPP conformation (CD) [1]: better activity | effect on IAPP fibrils (EM) ([2]; 10-fold excess): disruption of normal fibrils | effect on IAPP fibrils (EM) ([2]; 20 fold molar excess): Some fibrils were also seen
Molecule: LANFLV [FRA-016]

conformational change of IAPP (CD) ([1]; 10 fold excess): a conformational change at time 0 | effect on IAPP fibrils (EM) ([2]; 20 fold molar excess): appeared to enhance IAPP aggregation
Molecule: NFGAIL
inhibition of IAPP β-sheet formation / fibril formation, overall statement (CD) [1]: not inhibitory; also recorded: may actually enhance IAPP fibril formation | conformational change of IAPP (CD) ([1]; 20 fold excess): conformational change from random coil to β-sheet | effect on IAPP fibril morphology / density / aggregation (EM) [2]: slightly enhanced fibril formation; also recorded: had no effect on the morphology of IAPP fibrillar aggregates; also recorded: immediate increase in the development of fibrils

inhibitory activity from the circular dichroism results, peptides from the 8–20 region (summary) [1]: have inhibitory activity | description of activity on IAPP conformation (CD), peptides from the 8–20 region [1]: limited inhibitory activity
Molecule: NFLVHS [FRA-017]
effect on IAPP fibril morphology / density / aggregation (EM) [2]: only limited effects on the density and morphology of the fibrils

IAPP conformation (CD) ([1]; 48-hour incubation, 20-fold molar excess): maintain IAPP in a random conformation | inhibition of IAPP β-sheet formation / fibril formation, overall statement (CD) [1]: little, if any, inhibitory properties
Molecule: NNFGAI
effect on IAPP β-sheet formation / precipitation (CD) ([1]; 48-hour incubation): little effect on the ability of hIAPP (1–37) to form a β-sheet | effect on IAPP aggregation or precipitation (CD) ([1]; 48-hour incubation, 10 fold molar excess): no effect on aggregation or precipitation of hIAPP | effect on initial random structure of IAPP (CD) [1]: had no effect on the initial random structure of IAPP | effect on IAPP fibril morphology / density / aggregation (EM) [2]: had no effect on the morphology of IAPP fibrillar aggregates

effect on IAPP fibril morphology / density / aggregation (EM) [2]: significantly accelerated aggregation
Molecule: QRLANF [FRA-014]

Molecule: RLANFL [FRA-015]
effect on IAPP fibril morphology / density / aggregation (EM) [2]: enhanced lateral aggregation (ribbon structures); also recorded: significantly accelerated aggregation

Molecule: SSNFGA
inhibition of normal IAPP fibrillar aggregation (EM) ([2]; reduced inhibitor concentrations): effective inhibitors of normal IAPP fibrillar aggregation

Molecule: SSNNFG
hIAPP conformation by CD ([1]; 1:1 molar ratio with IAPP): maintained hIAPP (1–37) in a random coil conformation | effect on IAPP β-sheet formation / precipitation (CD) ([1]; 48-hour incubation): capable of maintaining IAPP in a random conformation | inhibition of IAPP β-sheet formation / fibril formation, overall statement (CD) [1]: strong inhibitors of β-sheet formation; also recorded: effective inhibitors even when used at low concentrations | effect on initial random structure of IAPP (CD) [1]: had no effect on the initial random structure of IAPP | effect on IAPP fibril morphology / density / aggregation (EM) [2]: typical high density of IAPP fibrils was not seen; also recorded: absence of fibrillar aggregates which could act as seeds

effect on IAPP conformation (CD) [1]: possibility of a random coil | effect on IAPP fibril morphology / density / aggregation (EM) [2]: significantly accelerated aggregation
Molecule: TQRLAN [FRA-013]
effect on IAPP conformation (CD), peptides from the 8–20 region [1]: enhanced formation of the beta-sheet conformation

sedimentation assay: soluble hIAPP remaining after 24 hours, 10 fold excess of peptide [3]: > 80% | sedimentation assay: soluble hIAPP remaining after 48 hours, 10 fold excess of peptide [3]: ~25% | sedimentation assay: soluble hIAPP remaining after 72 hours, 10 fold excess of peptide [3]: ~20%
Molecule: GAILSS

molar excess of peptide needed to keep IAPP in random conformation (CD, 48 hours) [3]: 20 fold molar excess
Molecule: NNFGAI

sedimentation assay: soluble hIAPP remaining after 24 hours, 10 fold excess of peptide [3]: ~15% | sedimentation assay: soluble hIAPP remaining after 48 hours, 10 fold excess of peptide [3]: ~25% | sedimentation assay: soluble hIAPP remaining after 72 hours, 10 fold excess of peptide [3]: ~20%
Molecule: SNNFGA
